Measurements reported in paper PMC5062973 (Nucleic Acids Research, 2016).

T1: M. jannaschii Nop5 (amino acids 1-367) (M. jannaschii, UniProt Q58105 1-367)
T1 sequence (looked up): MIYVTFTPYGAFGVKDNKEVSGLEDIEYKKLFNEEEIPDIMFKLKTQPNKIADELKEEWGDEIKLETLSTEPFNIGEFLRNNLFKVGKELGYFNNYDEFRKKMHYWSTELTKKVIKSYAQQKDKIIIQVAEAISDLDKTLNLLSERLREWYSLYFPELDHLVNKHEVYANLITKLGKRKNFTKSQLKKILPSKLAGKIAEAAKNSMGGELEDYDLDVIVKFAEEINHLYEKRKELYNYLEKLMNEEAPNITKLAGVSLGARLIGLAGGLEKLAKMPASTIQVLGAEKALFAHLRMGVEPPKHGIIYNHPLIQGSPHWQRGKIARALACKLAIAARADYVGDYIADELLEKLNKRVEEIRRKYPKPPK


Target: T1, M. jannaschii Nop5 (amino acids 1-367)
Assay: SEC

binding result	Binder
binds	M. jannaschii L7Ae (natural protein) not shown
binds	M. jannaschii fibrillarin with a N-terminal FLAG-tag (enzyme, UniProt Q58108 1-230, looked up) MEDIKIKEIFENIYEVDLGDGLKRIATKSIVKGKKVYDEKIIKIGDEEYRIWNPNKSKLAAAIIKGLKVMPIKRDSKILYLGASAGTTPSHVADIADKGIVYAIEYAPRIMRELLDACAERENIIPILGDANKPQEYANIVEKVDVIYEDVAQPNQAEILIKNAKWFLKKGGYGMIAIKARSIDVTKDPKEIFKEQKEILEAGGFKIVDEVDIEPFEKDHVMFVGIWEGK
